Reference: patent US8809529B2, “Imidazo[1,2-α]pyrazine derivatives” (Promega Corporation, priority 2010, dated 2014)

What was measured:
[1] = Stability of secreted OgLuc variants in saved media; format: physicochemical; settings: secreted variant in media
Method: To determine if the secretion signal sequence of OgLuc facilitates its secretion, the OgLuc variants 9B8, V2 and L27V were cloned into pF4Ag containing an N-terminal OgLuc secretion signal sequence. The variants were also cloned into vectors without the secretion signal sequence. CHO or HeLa cells were then plates at 100,000 cells/well in 1 mL F12 media with 10% FBS and 1× sodium pyruvate (CHO cells) or DMEM with 10% FBS and 1× sodium pyruvate (HeLa cells) into 12-well plates and incubated overnight at 37° C., 5% CO2.
After the overnight incubation, the cells were transfected with 1 μg plasmid DNA containing 9B8, V2, or L27V with or without the secretion signal sequence using the TRANSIT®-LT1 transfection reagent (Minis Bio) and OPTI-MEM® media (Invitrogen). The cells were again incubated overnight at 37° C., 5% CO2.
After the second overnight incubation, the media was removed and saved for analysis. […] To 10 μL of cell lysate or saved media from each sample, 50 μL assay buffer with 40 μM FBI-3939 was added, and luminescence measured as described above.
To determine the stability of the secreted variants, 150 μL aliquots of the saved media from each sample was placed at 37° C. or 50° C. The aliquots were then removed at different time points ([…]), frozen on thy ice, and kept at −20° C. until assayed. To assay for stability, the media aliquots were thawed to room temperature, and 10 μL of each aliquot was mixed with assay buffer with PBI-3939 (pH 6.0) as described above. Luminescence was measured as above, and the half-life (t50) determined (Table 34).

[2] = Luminescence of OgLuc variants expressed in HEK293 cells; format: cell-based, human; settings: for Increase in Luminescence: HEK293: normalized to 9B8 opt
Method: (§1) The PCR library in the pF4Ag-based non-fusion background was screened for additional variants with increased luminescence compared to 9B8 opt+K33N+170G (SEQ ID NOs: 68 and 69). Selected variants were then assayed in HEK293 and NIH3T3 cells. For each cell type, 15,000 cells were plated and grown overnight at 37° C. The next day, the cells were transfected as described in Example 25 with 10 ng pGL4.13 (Promega Corp.) as a transfection control and 100 ng of the OgLuc test DNA. The media was removed, and the cells were lysed with 100 μL of lysis buffer as described in Example 25 except the lysis buffer contained 100 mM MES pH 6.0 instead of HEPES, and luminescence measured using a GLOMAX® Luminometer.
(§2) Based on the above data, further combination variants were designed and generated (see Table 10) in the context of the pF4Ag-based non-fusion vector background without the 170G. The variants were analyzed in E. coli, HEK293 and NIH3T3 cells as described above and compared to 9B8 opt+K33N. The variants were also examined for luminescence with native coelenterazine.
(§3) The brightness of the variants expressed in HEK293 and NIH3T3 cells was measured as described previously. The luminescence of the variants was normalized to the luminescence generated by 9B8 opt (Table 27).
(§4) The variants 9B8 opt+K33N+T39T+K43R+Y68D (“V2”; SEQ ID NOs: 92 and 93), 9B8 opt+K33N+L27V+K43R+Y68D (SEQ ID NOs: 339 and 340), 9B8 opt+K33N+L27V+T39T+K43R+S66N (SEQ ID NOs: 341 and 342), and 9B8 opt+K33N+L27V+T39T+K43R+Y68D (“L27V”; SEQ ID NOs: 88 and 89) were subcloned into the Id-OgLuc-HT7 sandwich background as described above and assayed in HEK293 and NIH3T3 cells as described above. The luminescence generated by the sandwiched variants were compared to the luminescence generated by the […] sandwich (SEQ ID NOs: 59 and 60) (Table 38). The L27V sandwich (SEQ ID NOs: 90 and 91) and V2 sandwich (SEQ ID NOs: 94 and 95) had at least 1.3× fold-increase in luminescence in HEK293 and NIH3T3 cells.
(§5) The sandwich and non-sandwich versions of the variants V2, 9B8 opt+K33N+L27V+K43R+Y68D, 9B8 opt+K33N+L27V+T39T+K43R+S66N, and L27V were assayed in HEK293 and NIH3T3 cells as described in Example 37. The luminescence generated by the non-sandwiched variants was compared to the luminescence generated by the sandwiched variants (Table 39).

[3] = Luminescence of OgLuc variants expressed in NIH3T3 cells; format: cell-based; settings: for Increase in Luminescence: NIH3T3: normalized to 9B8 opt
Method: as §1, §2, §3, §4, §5

[4] = format: physicochemical, E. coli; settings: for ½ life hours: 60° C., assay buffer 100 mM MES pH 6.0
Method: Aliquots were removed at different time-points and placed on dry ice to freeze the samples. […] Luminescence was measured on a GLOMAX® luminometer (Promega Corp.).
The thermal stability of the variants at 60° C. was examined as described above, except the assay buffer contained 100 mM MES pH 6.0 instead of HEPES.

[5] = Enzyme kinetics of OgLuc variants (Km, Vmax); format: biochemical, E. coli; settings: PBI-3939, average of three replicates
Method: Using methods known in the art, enzyme kinetic assays measuring luminescence were performed with the lysates of E. coli containing N and the IV variants 15C1, 9B8, 9F6, and 9A3. […] Two fold serial dilutions of PBI-3939 in the assay buffer described previously in Example 26 were assayed with the diluted lysates. […] Variants 9B8 and 9F6 had higher Km values compared to IV while Km values for the other variants were unchanged.
Luminescence was measured on a TECAN® INFINITE® F500 luminometer.
The enzyme kinetics values were determined for the OgLuc variants as described previously, except luminescence was measured using a GLOMAX® luminometer. Three replicates were used for each variant.

[6] = relative specificity for PBI-3939

Row | Molecule | ½ life 37° C. [1] [days] | ½ life 50° C. [1] [h] | Fold-Decrease in Luminescence in the Presence of Sandwich Background: HEK 293 [2] | Fold over 9B8 opt + K33N: HEK293 ([2]; luminescence, PBI-3939) | Increase in Luminescence: HEK293 [2] | Fold over Native Coelenterazine: HEK293 [2, 6] | Fold-Decrease in Luminescence in the Presence of Sandwich Background: NIH 3T3 cells [3] | Fold over 9B8 opt + K33N: NIH3T3 ([3]; luminescence, PBI-3939) | Increase in Luminescence: NIH3T3 [3] | Fold over Native Coelenterazine: NIH3T3 [3, 6] | ½ life hours [4] [h] | Km [5] [µM] | Vmax [5] | RLU ([4]; luminescence at start of incubation (t=0)) | T1/2(60° C.) ([4]; pH 7) [h]
1 | L27V: 9B8 opt+K33N variant with L27V, T39T, K43R, Y68D (protein) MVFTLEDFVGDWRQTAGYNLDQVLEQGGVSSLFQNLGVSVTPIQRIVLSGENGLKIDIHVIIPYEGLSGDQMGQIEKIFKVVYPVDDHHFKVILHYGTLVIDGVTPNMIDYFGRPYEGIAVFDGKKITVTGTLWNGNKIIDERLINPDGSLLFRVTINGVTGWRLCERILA | 17 | 11 | 6 | 0.8 | 1.6 | 97 | 18 | 0.7 | 1.6 | 85 | 21.7 | 13.9 | 190,000,000 RLU/0.5 sec |  | 
2 | 9B8: IV variant with Q18L, F68Y, L72Q, M75K; in Tables 12, 22, 23, 26, 27 “9B8” stands for 9B8 opt (protein) MVFTLEDFVGDWRQTAGYNLDQVLEQGGLSSLFQKLGVSVTPIQKIVLSGENGLKIDIHVIIPYEGLSGYQMGQIEKIFKVVYPVDDHHFKVILHYGTLVIDGVTPNMIDYFGRPYEGIAVFDGKKITVTGTLWNGNKIIDERLINPDGSLLFRVTINGVTGWRLCERILA | 8 | 3 |  |  | 1.0 |  |  |  | 1.0 |  | 5.1 | 7.7 | 86,000,000 RLU/0.5 sec |  | 
3 | 9B8 opt: codon optimized version of the 9B8 variant (protein) MVFTLEDFVGDWRQTAGYNLDQVLEQGGLSSLFQKLGVSVTPIQKIVLSGENGLKIDIHVIIPYEGLSGYQMGQIEKIFKVVYPVDDHHFKVILHYGTLVIDGVTPNMIDYFGRPYEGIAVFDGKKITVTGTLWNGNKIIDERLINPDGSLLFRVTINGVTGWRLCERILA |  |  |  |  |  |  |  |  |  |  |  |  |  | 23,283,252,000 RLU | 5.7
